Data on five molecules can be found in patent publication US8236753 (BRIGHAM AND WOMEN S HOSPITAL, dated 2012).

What is called Kd is the constant that tells how readily two partners part at equilibrium.

The chains are these.
B1: wild-type RAP-D3 (third domain of the receptor-associated protein, residues 216-323) (ligand, human)
chain: GAEFEEPRVIDLWDLAQSANLTDKELEAFREELKHFEAKIEKHNHYQKQLEIAHEKLRHAESVGDGERVSRSREKHALLEGRTKELGYTVKKHLQDLSGRISRARHNEL
notes: range 216-323; Expressed in E. coli as a GST fusion, released by TEV protease, monomer isolated by size exclusion; The range 216-323 counts on the mature RAP protein, not on the precursor; also called RAP-D3 WT; RAPD3_WT
B2: RAP-D3 [H268F/H290F] (ligand)
chain: B1 chain with H54F, H76F
notes: also called RAPD3_H268, 290F
B3: LA3-4 module pair of the LDLR (LDL receptor type-A repeats 3 and 4) (receptor)
chain: not shown
notes: domain: LA3-4 module pair; also called two-repeat fragment of the LDL receptor; LA3-4 repeat pair
B4: RAP-D3-quad (RAP-D3 H257F/H259F/H268F/H290F) (ligand)
chain: B1 chain with H43F, H45F, H54F, H76F
notes: also called RAP-D3 Quad H:F; RAPD3_H257, 259, 268, 290F
B5: RAP-D3 [H257F/H259F] (ligand)
chain: B1 chain with H43F, H45F
notes: The entry is printed as ENLYFQG followed by the 108 residues; also called RAPD3_H257, 259F; RAP-D3 H257,259F

Substitutions are numbered along the chain they refer to. Names and notes keep the numbering of the source. Where only a bound is given, the exact number is not on record here.

Assay [1] deals with B3. The experiment in a line: ITC, RAP-D3 titrated into LA3-4, 20 mM HEPES pH 7.3, 5 mM CaCl2, 25 C, 50 mM NaCl. Also noted: ΔH: unit not given here. How it is done:
(§1) RAP-D3 titrations were performed in 20 mM HEPES, pH 7.3, 50-150 mM NaCl, 5 mM CaCl_2 at 25° C. using a VP-ITC calorimeter (MicroCal Inc., Northampton, Mass.) in a 1.3 mL reaction vessel. A RAP-D3 stock solution (132-178 μM) was added in 6-8 μL increments to LA3-4 (20-25 μM). Calorim-
(In general: In ITC the heat of successive injections is recorded.)

The target of assay [2] is B3. The experiment in a line: ITC, RAP-D3 titrated into LA3-4, 20 mM HEPES pH 7.3, 5 mM CaCl2, 25 C, 150 mM NaCl. Also noted: ΔH: unit not given here. How it is done: as §1
For assay [3], the target named is B3. The experiment in a line: ITC at neutral pH. On the procedure:
as §1

Assay [4] has as its target B1. As to the kind of experiment: ITC, RAP-D3 titrated into LA3-4, 20 mM HEPES pH 7.3, 5 mM CaCl2, 25 C, 50 mM NaCl. Also on record: ΔH: unit not given here. How it is done: as §1
The target in assay [5] is B1. The experiment in a line: ITC, RAP-D3 titrated into LA3-4, 20 mM HEPES pH 7.3, 5 mM CaCl2, 25 C, 150 mM NaCl. Also on record: ΔH: unit not given here. How it is done:
as §1

Assay [6] has as its target B3. As to the kind of experiment: ITC, RAP-D3 titrated into LA3-4, 20 mM HEPES pH 7.3, 5 mM CaCl2, 25 C, 100 mM NaCl; 100 mM NaCl. How it is done: as §1
For assay [7], the target named is B3. The experiment in a line: ITC, RAP-D3 titrated into LA3-4, 20 mM HEPES pH 7.3, 5 mM CaCl2, 25 C, 100 mM NaCl. Also on record: ΔH: unit not given here. How it is done:
as §1

For the molecule B1, the ΔH in assay [1] was -9.1; in assay [2] it was -6.8.
B2: the “fold difference in affinity against wild-type RAP-D3” value (from here on “fold difference in affinity”) in assay [3] is no more than 2 fold. In assay [1], this molecule had a Kd of 1160 nM and a ΔH of -9.3.
Take B3: the figures for the Kd in assay [4] and in assay [5] were 480 nM and 1170 nM, respectively.
As for B4, in assay [3], the “fold difference in affinity” value is no more than 2 fold. In assay [6], the Ka amounted to 1.2e+06 M⁻¹. In assay [7], this molecule returned a Kd of 850 nM and a ΔH of -5.4.
Regarding B5, the “fold difference in affinity” value in assay [3] was no more than 2 fold. In assay [1], this molecule registered a Kd of 850 nM and a ΔH of -8.6.
